From paper PMC11661448

B1: TTC7B-FAM126A (1 to 308) mutant FAM126A:L106F [human] / EFR3A (721 to 791) [human] (parent)
chain 1: MATKKAGSRLETEIERCRSECQWERIPELVKQLSAKLIANDDMAELLLGESKLEQYLKEHPLRQGASPRGPKPQLTEVRKHLTAALDRGNLKSEFLQESNLIMAKLNYVEGDYKEALNIYARVGLDDLPLTAVPPYRLRVIAEAYATKGLCLEKLPISSSTSNLHVDREQDVITCYEKAGDIALLYLQEIERVILSNIQNRSPKPGPAPHDQELGFFLETGLQRAHVLYFKNGNLTRGVGRFRELLRAVETRTTQNLRMTIARQLAEILLRGMCEQSYWNPLEDPPCQSPLDDPLRKGANTKTYTLTRRARVYSGENIFCPQENTEEALLLLLISESMANRDAVLSRIPEHKSDRLISLQSASVVYDLLTIALGRRGQYEMLSECLERAMKFAFEEFHLWYQFALSLMAAGKSARAVKVLKECIRLKPDDATIPLLAAKLCMGSLHWLEEAEKFAKTVVDVGEKTSEFKAKGYLALGLTYSLQATDASLRGMQEVLQRKALLAFQRAHSLSPTDHQAAFYLALQLAISRQIPEALGYVRQALQLQGDDANSLHLLALLLSAQKHYHDALNIIDMALSEYPENFILLFSKVKLQSLCRGPDEALLTCKHMLQIWKSCYNLTNPSDSGRGSSLLDRTIADRRQLNTITLPDFSDPETGSVHATSVAASRVEQALSEVASSLQSSAPKQGPLHPWMTLAQIWLHAAEVYIGIGKPAEATACTQEAANLFPMSHNVLYMRGQIAELRGSMDEARRWYEEALAISPTHVKSMQRLALILHQLGRYSLAEKILRDAVQVNSTAHEVWNGLGEVLQAQGNDAAATECFLTALELEASSPAVPFTIIPRVL
chain 2: MFTSEKGVVEEWLSEFKTLPETSLPNYATNLKDKSSLVSSLYKVIQEPQSELLEPVCHQLFEFYRSGEEQLLQFTLQFLPELIWCYLAVSASRNVHSSGCIEALLLGVYNLEIVDKQGHTKVLSFTIPSLSKPSVYHEPSSIGSMALTESALSQHGLSKVVYSGPHPQREMLTAQNRFEVLTFLLLCYNAALTYMPSVSLQSLCQICSRICVCGYPRQHVRKYKGISSRIPVSSGFMVQMLTGIYFAFYNGEWDLAQKALDDIIYRAQLELYPEPLLVANAIKASLPHGPMKSNKEGTRCIQVEITPT
chain 3: SNTEEITFEALKKAIDTSGMEEQEKEKRRLVIEKFQKAPFEEIAAQCESKANLLHDRLAQILELTIRPPPS

Variants of: B1
Test: BLI
Details: with EFR3A (721 to 791) [human]; His-EFR3A loaded on the anti-penta-His tip at 200 nM, TTC7B-FAM126A at 500 nM; 25°C; 20 mM HEPES (pH 7.5), 150 mM NaCl; read off a plot

response	Variant
1.1 nm	chain 2 L106F
1.6 nm	chain 2 H58E
0.37 nm	chain 2 F61A
-0.07 nm	chain 1 A702R
1.4 nm	chain 1 W699A
1.2 nm	chain 1 R539E
0.85 nm	chain 1 L610A
0.08 nm	chain 2 A103R

Same assay, conditions: with TTC7B-FAM126A (1 to 308) [human]; His-EFR3A loaded on the anti-penta-His tip at 200 nM, TTC7B-FAM126A at 500 nM; 25°C; 20 mM HEPES (pH 7.5), 150 mM NaCl; read off a plot

response	Variant
0.82 nm	chain 3 K50E
0.23 nm	chain 3 A14R
1.3 nm	chain 3 R57E
0.17 nm	chain 3 L11R
0.01 nm	chain 3 L11A
0.45 nm	chain 3 I43A
0.27 nm	chain 3 K12E
-0.02 nm	chain 3 F35A
0.47 nm	chain 3 F8A
1.5 nm	chain 3 I61A
0.84 nm	chain 3 F40A
